Measured values as given in patent US20130065832A1 (WASHINGTON UNIVERSITY, published 2013).

Columns and labels:
[1] = target: T1, MOR1 (endogenous, mouse spinal cord) (mouse, UniProt P42866 1-398); experiment: co-IP with anti-MOR1 antibody from spinal cord membrane preparation, immunoblot for GRPR
T1 construct: Untagged native receptor; precipitated with a rabbit anti-MOR1 antibody (Neuromics)

[2] = target: T2, MOR1D (endogenous, mouse spinal cord) (mouse, UniProt P42866-9 1-393); experiment: co-IP with anti-MOR1D antibody from spinal cord membrane preparation, immunoblot for GRPR
T2 construct: Untagged native receptor in spinal cord membrane preparations and sections; MOR1D is a splice isoform of it; also called spinal MOR1D
T2 sequence (P42866 1-386, tags or fused parts left off): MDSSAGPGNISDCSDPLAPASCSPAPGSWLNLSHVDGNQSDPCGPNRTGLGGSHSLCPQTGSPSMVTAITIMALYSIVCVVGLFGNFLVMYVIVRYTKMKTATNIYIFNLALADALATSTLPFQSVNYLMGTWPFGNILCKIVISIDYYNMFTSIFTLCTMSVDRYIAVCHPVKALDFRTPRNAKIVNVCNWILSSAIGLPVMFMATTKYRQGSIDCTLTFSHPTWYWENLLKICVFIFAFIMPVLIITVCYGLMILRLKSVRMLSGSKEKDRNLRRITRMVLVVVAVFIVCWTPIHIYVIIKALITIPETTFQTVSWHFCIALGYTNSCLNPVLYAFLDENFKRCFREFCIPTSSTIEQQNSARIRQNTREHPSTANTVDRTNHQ

T1 sequence (P42866 whole entry): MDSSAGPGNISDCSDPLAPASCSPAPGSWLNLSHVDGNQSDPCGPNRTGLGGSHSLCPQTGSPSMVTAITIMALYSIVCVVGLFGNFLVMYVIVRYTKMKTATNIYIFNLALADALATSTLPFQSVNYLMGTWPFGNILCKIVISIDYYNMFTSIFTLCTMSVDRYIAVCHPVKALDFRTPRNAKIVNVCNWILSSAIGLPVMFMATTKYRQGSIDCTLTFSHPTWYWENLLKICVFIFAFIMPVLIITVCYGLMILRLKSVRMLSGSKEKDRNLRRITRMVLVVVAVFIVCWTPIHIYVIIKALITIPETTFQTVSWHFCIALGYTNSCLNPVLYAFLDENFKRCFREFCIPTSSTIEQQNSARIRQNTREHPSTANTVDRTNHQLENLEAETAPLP

binding result [1]: no binding
binding result [2]: binds
B1: GRPR (endogenous, mouse spinal cord) (receptor, UniProt P21729 1-384, looked up)
chain: MAPNNCSHLNLDVDPFLSCNDTFNQSLSPPKMDNWFHPGFIYVIPAVYGLIIVIGLIGNITLIKIFCTVKSMRNVPNLFISSLALGDLLLLVTCAPVDASKYLADRWLFGRIGCKLIPFIQLTSVGVSVFTLTALSADRYKAIVRPMDIQASHALMKICLKAALIWIVSMLLAIPEAVFSDLHPFHVKDTNQTFISCAPYPHSNELHPKIHSMASFLVFYVIPLAIISVYYYFIARNLIQSAYNLPVEGNIHVKKQIESRKRLAKTVLVFVGLFAFCWLPNHVIYLYRSYHYSEVDTSMLHFVTSICARLLAFTNSCVNPFALYLLSKSFRKQFNTQLLCCQPGLMNRSHSTGRSTTCMTSFKSTNPSATFSLINRNICHEGYV
notes: Untagged native receptor in spinal cord membrane preparations; also called gastrin-releasing peptide receptor
